Data: patent US20120316071A1 (published 2012)
Substitutions are numbered along the chain they refer to. Numbers in names are those of the source.

T1: rHuman Erythropoietin R/Fc Chimera, CF (R&D Systems Cat#963-ER) (human, UniProt P19235 25-250)
T1 construct: Bought recombinant Fc chimera; also called EPO R; EPO R/Fc; Fc part of the bought chimera not given
T1 sequence (looked up): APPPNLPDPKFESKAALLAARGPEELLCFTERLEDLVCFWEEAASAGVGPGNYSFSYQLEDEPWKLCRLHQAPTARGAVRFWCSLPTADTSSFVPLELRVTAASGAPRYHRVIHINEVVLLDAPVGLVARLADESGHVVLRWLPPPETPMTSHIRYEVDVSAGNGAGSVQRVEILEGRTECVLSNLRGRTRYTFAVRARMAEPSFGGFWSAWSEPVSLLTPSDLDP

B1: Fab VH1-46_IGHD6-6*01_IGHJ1*01 S102A/S103P/S104F/H111F (APFF) & L6_IGKJ1*01 S28N (Fab, V domains shown)
VH: QVQLVQSGAEVKKPGASVKVSCKASGYTFTSYYMHWVRQAPGQGLEWMGIINPSGGSTSYAQKFQGRVTMTRDTSTSTVYMELSSLRSEDTAVYYCAREEYAPFSAEYFQFWGQGTLVTVSS
VL: EIVLTQSPATLSLSPGERATLSCRASQNVSSYLAWYQQKPGQAPRLLIYDASNRATGIPARFSGSGSGTDFTLTISSLEPEDFAVYYCQQRSNWPPWTFGQGTKVEIKR
notes: Fab; VH cloned into Plasmid A (CH1, His6 and Flag tags) and VL into Plasmid C (kappa CL); also called APFF / S28N
B2: Fab VH1-46_IGHD6-6*01_IGHJ1*01 S102A/S103P/S104F/H111F (APFF) & L6_IGKJ1*01 S28H (Fab, V domains shown)
VH: B1 VH
VL: B1 VL with N28H
notes: Fab; VH cloned into Plasmid A (CH1, His6 and Flag tags) and VL into Plasmid C (kappa CL); also called APFF / S28H
B3: Fab VH1-46_IGHD6-6*01_IGHJ1*01 S102A/S103P/S104F/H111F (APFF) & L6_IGKJ1*01 S28W (Fab, V domains shown)
VH: B1 VH
VL: B1 VL with N28W
notes: Fab; VH cloned into Plasmid A (CH1, His6 and Flag tags) and VL into Plasmid C (kappa CL); also called APFF / S28W
B4: Fab VH1-46_IGHD6-6*01_IGHJ1*01 S102A/S103P/S104F/H111F (APFF) & L6_IGKJ1*01 S30L (Fab, V domains shown)
VH: B1 VH
VL: B1 VL with N28S, S30L
notes: Fab; VH cloned into Plasmid A (CH1, His6 and Flag tags) and VL into Plasmid C (kappa CL); also called APFF / S30L
B5: Fab VH1-46_IGHD6-6*01_IGHJ1*01 S102A/S103P/S104F/H111F (APFF) & L6_IGKJ1*01 S28R (Fab, V domains shown)
VH: B1 VH
VL: B1 VL with N28R
notes: Fab; VH cloned into Plasmid A (CH1, His6 and Flag tags) and VL into Plasmid C (kappa CL); also called APFF / S28R
B6: Fab VH1-46_IGHD6-6*01_IGHJ1*01 S102A/S103P/S104F/H111F (APFF) & L6_IGKJ1*01 S28M (Fab, V domains shown)
VH: B1 VH
VL: B1 VL with N28M
notes: Fab; VH cloned into Plasmid A (CH1, His6 and Flag tags) and VL into Plasmid C (kappa CL); also called APFF / S28M
B7: Fab VH1-46_IGHD6-6*01_IGHJ1*01 S102A/S103P/S104F/H111F (APFF) & L6_IGKJ1*01 S30D (Fab, V domains shown)
VH: B1 VH
VL: B1 VL with N28S, S30D
notes: Fab; VH cloned into Plasmid A (CH1, His6 and Flag tags) and VL into Plasmid C (kappa CL); also called APFF / S30D
B8: Fab VH1-46_IGHD6-6*01_IGHJ1*01 S102A/S103P/S104F/H111F (APFF) & L6_IGKJ1*01 S30C (Fab, V domains shown)
VH: B1 VH
VL: B1 VL with N28S, S30C
notes: Fab; VH cloned into Plasmid A (CH1, His6 and Flag tags) and VL into Plasmid C (kappa CL); also called APFF / S30C
B9: Fab VH1-46_IGHD6-6*01_IGHJ1*01 S102A/S103P/S104F/H111F (APFF) & L6_IGKJ1*01 S28I (Fab, V domains shown)
VH: B1 VH
VL: B1 VL with N28I
notes: Fab; VH cloned into Plasmid A (CH1, His6 and Flag tags) and VL into Plasmid C (kappa CL); also called APFF / S28I
B10: Fab VH1-46_IGHD6-6*01_IGHJ1*01 S102A/S103P/S104F/H111F (APFF) & L6_IGKJ1*01 S28E (Fab, V domains shown)
VH: B1 VH
VL: B1 VL with N28E
notes: Fab; VH cloned into Plasmid A (CH1, His6 and Flag tags) and VL into Plasmid C (kappa CL); also called APFF / S28E
B11: Fab VH1-46_IGHD6-6*01_IGHJ1*01 S102A/S103P/S104F/H111F (APFF) & L6_IGKJ1*01 (Fab, V domains shown)
VH: B1 VH
VL: not shown
notes: Tested as Fab made in E. coli: VH in Plasmid A (CH1, His6 and Flag tags), VL in Plasmid C (kappa CL); also called APFF / parent; H:APFF & L:wt

The binders below were run against T2, rHuman Notch-1/Fc Chimera, CF (R&D Systems Cat#3647-TK) (human, UniProt P46531 19-526) (assay: ECL multispot (MSD), antigen spotted, Fab in solution;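 further: purified Fab incubated 1 h at 20 °C on antigen-spotted wells, bound Fab detected via TAG detection antibody, ECL compared with each well's blank, ratio of 4 or above scored as hit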).
T2 construct: Bought recombinant Fc chimera; Fc part of the bought chimera not given

| Binder | ECL signal |
| --- | --- |
| B1 | 243 |
| B2 | 482 |
| B3 | 349 |
| B4 | 389 |
| B5 | 425 |
| B6 | 382 |
| B7 | 415 |
| B8 | 1470 |
| B9 | 442 |
| B10 | 433 |

Each binder was assayed against T3, rHuman P-Cadherin/Fc Chimera, CF (R&D Systems Cat#861-PC) (human, UniProt P22223 108-654) in the same assay as above.
T3 construct: Bought recombinant Fc chimera; Fc part of the bought chimera not given

| Binder | ECL signal |
| --- | --- |
| B1 | 447 |
| B2 | 447 |
| B3 | 385 |
| B4 | 351 |
| B5 | 395 |
| B6 | 410 |
| B7 | 543 |
| B8 | 1690 |
| B9 | 416 |
| B10 | 393 |

The binders below were run against T4, rHuman ErbB2/Fc Chimera, CF (R&D Systems Cat#1129-ER) (human, UniProt P04626 23-652) in the same assay as above.
T4 construct: Bought recombinant Fc chimera; also called human epidermal growth factor 2 receptor; Fc part of the bought chimera not given

| Binder | ECL signal |
| --- | --- |
| B1 | 363 |
| B2 | 381 |
| B3 | 316 |
| B4 | 270 |
| B5 | 318 |
| B6 | 271 |
| B7 | 284 |
| B8 | 1010 |
| B9 | 265 |
| B10 | 389 |

What follows are binders tested against T5, rHuman EGF R/Fc Chimera, CF (R&D Systems Cat#344-ER) (human, UniProt P00533 25-645) in the same assay as above.
T5 construct: Bought recombinant Fc chimera; also called epidermal growth factor receptor; Fc part of the bought chimera not given

| Binder | ECL signal |
| --- | --- |
| B1 | 325 |
| B2 | 435 |
| B3 | 283 |
| B4 | 406 |
| B5 | 403 |
| B6 | 320 |
| B7 | 325 |
| B8 | 1190 |
| B9 | 386 |
| B10 | 396 |

These binders were tested against T1, rHuman Erythropoietin R/Fc Chimera, CF … in the same assay as above.

| Binder | ECL signal |
| --- | --- |
| B1 | 440 |
| B2 | 517 |
| B3 | 489 |
| B4 | 540 |
| B5 | 542 |
| B6 | 360 |
| B7 | 496 |
| B8 | 1790 |
| B9 | 450 |
| B10 | 513 |

Each binder was assayed against T6, rHuman IGF-1 sR, (IGF-1 sR), CF (R&D Systems Cat#391-GR) (human, UniProt P08069 31-932) in the same assay as above.
T6 construct: Bought recombinant soluble receptor; The column head prints only 'IGF-1'; also called insulin-like growth factor-1 soluble receptor

| Binder | ECL signal |
| --- | --- |
| B1 | 331 |
| B2 | 355 |
| B3 | 489 |
| B4 | 332 |
| B5 | 437 |
| B6 | 341 |
| B7 | 357 |
| B8 | 1030 |
| B9 | 353 |
| B10 | 361 |

The binders below were run against T7, rHuman HGF R/c-MET/Fc Chimera, CF (R&D Systems Cat#358-MT/CF) (human, UniProt P08581 25-932) in the same assay as above.
T7 construct: Bought recombinant Fc chimera; also called HGF R/Fc; hepatocyte growth factor receptor; Fc part of the bought chimera not given

| Binder | ECL signal |
| --- | --- |
| B1 | 406 |
| B2 | 346 |
| B3 | 414 |
| B4 | 315 |
| B5 | 378 |
| B6 | 305 |
| B7 | 312 |
| B8 | 1230 |
| B9 | 369 |
| B10 | 401 |

What follows are binders tested against T8, rHuman CD44/Fc Chimera, CF (R&D Systems Cat#3660-CD) (human, UniProt P16070 21-220) in the same assay as above.
T8 construct: Bought recombinant Fc chimera; Fc part of the bought chimera not given

| Binder | ECL signal |
| --- | --- |
| B1 | 399 |
| B2 | 513 |
| B3 | 404 |
| B4 | 295 |
| B5 | 378 |
| B6 | 313 |
| B7 | 434 |
| B8 | 1080 |
| B9 | 412 |
| B10 | 461 |

The binders below were run against T9, rHuman ErbB2/Fc Chimera, CF (R&D Systems Cat#1129-ER) (human, UniProt P04626 23-652) (assay: ECL multispot (MSD) binding assay, antigen spotted on plate;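 further: purified Fab incubated 1 h at 20 °C on antigen spots, detected with TAG-labelled antibody, electrochemiluminescence compared with each well's blank, signal-to-blank ratio ≥4 counted as hit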).
T9 construct: Bought recombinant protein; also called human epidermal growth factor 2 receptor

| Binder | ECL signal |
| --- | --- |
| B11 | 312 |

What follows are binders tested against T10, rHuman P-Cadherin/Fc Chimera, CF (R&D Systems Cat#861-PC) (human, UniProt P22223 108-654) in the same assay as above.
T10 construct: Bought recombinant protein

| Binder | ECL signal |
| --- | --- |
| B11 | 450 |

What follows are binders tested against T11, rHuman HGF R/c-MET/Fc Chimera, CF (R&D Systems Cat#358-MT/CF) (human, UniProt P08581 25-932) in the same assay as above.
T11 construct: Bought recombinant protein; also called HGF R/Fc; hepatocyte growth factor receptor

| Binder | ECL signal |
| --- | --- |
| B11 | 347 |

Each binder was assayed against T12, Recombinant Human DLL4 (R&D Systems Cat#1506-D4/CF) (human, UniProt Q9NR61 27-524) in the same assay as above.
T12 construct: Bought recombinant protein; also called delta-like protein 4; rHuman DLL4

| Binder | ECL signal |
| --- | --- |
| B11 | 172000 |

The binders below were run against T13, rHuman EGF R/Fc Chimera, CF (R&D Systems Cat#344-ER) (human, UniProt P00533 25-645) in the same assay as above.
T13 construct: Bought recombinant protein; also called epidermal growth factor receptor

| Binder | ECL signal |
| --- | --- |
| B11 | 370 |

Each binder was assayed against T14, rHuman IGF-1 sR, (IGF-1 sR), CF (R&D Systems Cat#391-GR) (human, UniProt P08069 31-932) in the same assay as above.
T14 construct: Bought recombinant soluble receptor; also called insulin-like growth factor-1 soluble receptor

| Binder | ECL signal |
| --- | --- |
| B11 | 433 |
